Data: US20170051261
Substitutions are numbered along the chain they refer to. Numbers in names are those of the source.

B1: A199S/S227A/S287G/A328W/Y332G mutant mouse BChE (protein)
chain: EEDFIITTKTGRVRGLSMPVLGGTVTAFLGIPYAQPPLGSLRFKKPQPLNKWPDIHNATQYANSCYQNIDQAFPGFQGSEMWNPNTNLSEDCLYLNVWIPVPKPKNATVMVWIYGGGFQTGTSSLPVYDGKFLARVERVIVVSMNYRVGALGFLAFPGNPDAPGNMGLFDQQLALQWVQRNIAAFGGNPKSITIFGESSGAASVSLHLLCPQSYPLFTRAILESGSANAPWAVKHPEEARNRTLTLAKFTGCSKENEMEMIKCLRSKDPQEILRNERFVLPSDSILGINFGPTVDGDFLTDMPHTLLQLGKVKKAQILVGVNKDEGTWFLVGGAPGFSKDNDSLITRKEFQEGLNMYFPGVSRLGKEAVLFYYVDWLGEQSPEVYRDALDDVIGDYNIICPALEFTKKFAELENNAFFYFFEHRSSKLPWPEWMGVMHGYEIEFVFGLPLGRRVNYTRAEEIFSRSIMKTWANFAKYGHPNGTQGNSTMWPVFTSTEQKYLTLNTEKSKIYSKLRAPQCQFWRLFFPKVLEMTGDIDETEQEWKAGFHRWSNYMMDWQNQFNDYTSKKESCTAL
B2: purified human butyrylcholinesterase (wild-type human BChE) (protein)
chain: EDDIIIATKNGKVRGMNLTVFGGTVTAFLGIPYAQPPLGRLRFKKPQSLTKWSDIWNATKYANSCCQNIDQSFPGFHGSEMWNPNTDLSEDCLYLNVWIPAPKPKNATVLIWIYGGGFQTGTSSLHVYDGKFLARVERVIVVSMNYRVGALGFLALPGNPEAPGNMGLFDQQLALQWVQKNIAAFGGNPKSVTLFGESAGAASVSLHLLSPGSHSLFTRAILQSGSFNAPWAVTSLYEARNRTLNLAKLTGCSRENETEIIKCLRNKDPQEILLNEAFVVPYGTPLSVNFGPTVDGDFLTDMPDILLELGQFKKTQILVGVNKDEGTAFLVYGAPGFSKDNNSIITRKEFQEGLKIFFPGVSEFGKESILFHYTDWVDDQRPENYREALGDVVGDYNFICPALEFTKKFSEWGNNAFFYYFEHRSSKLPWPEWMGVMHGYEIEFVFGLPLERRDNYTKAEEILSRSIVKRWANFAKYGNPNETQNNSTSWPVFKSTEQKYLTLNTESTRIMTKLRAQQCRFWTSFFPKVLEMTGNIDEAEWEWKAGFHRWNNYMMDWKNQFNDYTSKKESCVGL
B3: A199S/F227A/S287G/A328W/Y332G mutant human BChE (protein)
chain: B2 chain with A199S, F227A, S287G, A328W, Y332G

Target: human acyl ghrelin, Q9UBU3
Sequence (Q9UBU3 whole entry, looked up): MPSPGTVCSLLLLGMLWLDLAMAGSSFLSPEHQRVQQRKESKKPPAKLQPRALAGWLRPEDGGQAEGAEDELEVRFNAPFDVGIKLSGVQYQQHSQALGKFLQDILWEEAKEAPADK

Row | Protein | ghrelin hydrolyzing activity in vitro (human ghrelin immunoassay kit: decrease in acyl ghrelin, increase in deacyl ghrelin) | hydrolysis (deacylation) of acyl ghrelin in vitro; residual acyl ghrelin and desacyl ghrelin by immunoassay | time course of acyl ghrelin hydrolysis in vitro
1 | B1 | exhibited enhanced activity (e.g., at least 20-fold more activity), comparable to that of wild type mouse BChE | – | –
2 | B2 | – | Incubation of a sample containing acyl ghrelin with increasing amounts of human BChE resulted in a decrease in the amount of acyl ghrelin and an increase in the amount of the breakdown product, desacyl ghrelin | A linear hydrolysis rate was observed
3 | B3 | exhibited modest activity, comparable to that of wild type human BChE | – | –
